Experimental data from the supplement of paper PMC5998384.

Tests used:
HeLa Kyoto [1] = assay: solubility in G1/S (NP-40 vs SDS abundance) (log2 ratio); higher = more soluble; settings: cell cycle stage: G1/S
HeLa Kyoto [2] = assay: melting temperature (median over replicates), in situ; higher = more thermally stable
HeLa Kyoto [3] = assay: solubility change mitosis vs G1/S (difference of NP-40 vs SDS log2 ratios) (log2 ratio difference); higher = more soluble in mitosis
HeLa Kyoto [4] = assay: thermal stability score vs G1/S (z-score of summed log2 fold changes over temperatures); higher = more thermally stable than in G1/S
[5] = cell cycle stage: early G1 (4.5 h after nocodazole release)
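Wherever melting temperature (median over replicates), in situ is given: HeLa Kyoto cells synchronized by double thymidine or nocodazole block, proteins quantified by TMT10plex mass spectrometry, three independent biological replicates.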
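Wherever solubility change mitosis vs G1/S (difference of NP-40 vs SDS log2 ratios) is given: synchronized HeLa Kyoto cells (double thymidine block for G1/S, nocodazole release for mitosis), protein amounts in NP-40 versus SDS lysates quantified by mass spectrometry, three biological replicates.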
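Wherever solubility in G1/S (NP-40 vs SDS abundance) is given: HeLa Kyoto cells arrested at G1/S by double thymidine block, proteins quantified by TMT10plex mass spectrometry in mild NP-40 versus SDS extracts, three biological replicates.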
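Wherever thermal stability score vs G1/S (z-score of summed log2 fold changes over temperatures) is given: synchronized HeLa Kyoto cells, proteins quantified by TMT10plex mass spectrometry, three biological replicates, mitosis taken 0.5 h after nocodazole release, G1/S directly after double thymidine block.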

Sequence	solubility in G1/S (log2) (HeLa Kyoto [1])	melting temperature (HeLa Kyoto [2]; cell cycle stage: G1/S) [°C]	melting temperature (HeLa Kyoto [2]; cell cycle stage: mitosis) [°C]	solubility change mitosis (log2) (HeLa Kyoto [3])	thermal stability score (HeLa Kyoto [4]; [5])	thermal stability score (HeLa Kyoto [4]; cell cycle stage: mitosis)
MAVQESAAQLSMTLKVQEYPTLKVPYETLNKRFRAAQKNIDRETSHVTMVVAELEKTLSGCPAVDSVVSLLDGVVEKLSVLKRKAVESIQAEDESAKLCKRRIEHLKEHSSDQPAAASVWKRKRMDRMMVEHLLRCGYYNTAVKLARQSGIEDLVNIEMFLTAKEVEESLERRETATCLAWCHDNKSRLRKMKSCLEFSLRIQEFIELIRQNKRLDAVRHARKHFSQAEGSQLDEVRQAMGMLAFPPDTHISPYKDLLDPARWRMLIQQFRYDNYRLHQLGNNSVFTLTLQAGLSAIKTPQCYKEDGSSKSPDCPVCSRSLNKLAQPLPMAHCANSRLVCKISGDVMNENNPPMMLPNGYVYGYNSLLSIRQDDKVVCPRTKEVFHFSQAEKVYIM [MAEA]	-0.0777	50.2	49.3	-0.0756	-0.838	-0.615
MMRFMLLFSRQGKLRLQKWYLATSDKERKKMVRELMQVVLARKPKMCSFLEWRDLKVVYKRYASLYFCCAIEGQDNELITLELIHRYVELLDKYFGSVCELDIIFNFEKAYFILDEFLMGGDVQDTSKKSVLKAIEQADLLQEEDESPRSVLEEMGLA [AP1S1]	-0.154	53	–	-0.0672	-1.3	-0.738
MSDHGDVSLPPEDRVRALSQLGSAVEVNEDIPPRRYFRSGVEIIRMASIYSEEGNIEHAFILYNKYITLFIEKLPKHRDYKSAVIPEKKDTVKKLKEIAFPKAEELKAELLKRYTKEYTEYNEEKKKEAEELARNMAIQQELEKEKQRVAQQKQQQLEQEQFHAFEEMIRNQELEKERLKIVQEFGKVDPGLGGPLVPDLEKPSLDVFPTLTVSSIQPSDCHTTVRPAKPPVVDRSLKPGALSNSESIPTIDGLRHVVVPGRLCPQFLQLASANTARGVETCGILCGKLMRNEFTITHVLIPKQSAGSDYCNTENEEELFLIQDQQGLITLGWIHTHPTQTAFLSSVDLHTHCSYQMMLPESVAIVCSPKFQETGFFKLTDHGLEEISSCRQKGFHPHSKDPPLFCSCSHVTVVDRAVTITDLR [STAMBP]	0.276	48.6	49.7	-0.118	0.214	0.921
MKVNRETKRLYVGGLSQDISEADLQNQFSRFGEVSDVEIITRKDDQGNPQKVFAYINISVAEADLKKCMSVLNKTKWKGGTLQIQLAKESFLHRLAQEREAAKAKKEESTTGNANLLEKTGGVDFHMKAVPGTEVPGHKNWVVSKFGRVLPVLHLKNQHKRKIIKYDPSKYCHNLKKIGEDFSNTIPISSLTWELEGGNDPMSKKRRGEFSDFHGPPKKIIKVQKDESSTGSLAMSTRPRRVIERPPLTQQQAAQKRTCDSITPSKSSPVPVSDTQKLKNLPFKTSGLETAKKRNSISDDDTDSEDELRMMIAKEENLQRTTQPSINESESDPFEVVRDDFKSGVHKLHSLIGLGIKNRVSCHDSDDDIMRNDREYDSGDTDEIIAMKKNVAKVKNSTEFSQMEKSTKKTSFKNRENCELSDHCIKLQKRKSNVESALSHGLKSLNRKSPSHSSSSEDADSASELADSEGGEEYNAMMKNCLRVNLTLADLEQLAGSDLKVPNEDTKSDGPETTTQCKFDRGSKSPKTPTGLRRGRQCIRPAEIVASLLEGEENTCGKQKPKENNLKPKFQAFKGVGCLYEKESMKKSLKDSVASNNKDQNSMKHEDPSIISMEDGSPYVNGSLGEVTPCQHAKKANGPNYIQPQKRQTTFESQDRKAVSPSSSEKRSKNPISRPLEGKKSLSLSAKTHNIGFDKDSCHSTTKTEASQEERSDSSGLTSLKKSPKVSSKDTREIKTDFSLSISNSSDVSAKDKHAEDNEKRLAALEARQKAKEVQKKLVHNALANLDGHPEDKPTHIIFGSDSECETEETSTQEQSHPGEEWVKESMGKTSGKLFDSSDDDESDSEDDSNRFKIKPQFEGRAGQKLMDLQSHFGTDDRFRMDSRFLETDSEEEQEEVNEKKTAEEEELAEEKKKALNVVQSVLQINLSNSTNRGSVAAKKFKDIIHYDPTKQDHATYERKRDDKPKESKAKRKKKREEAEKLPEVSKEMYYNIAMDLKEIFQTTKYTSEKEEGTPWNEDCGKEKPEEIQDPAALTSDAEQPSGFTFSFFDSDTKDIKEETYRVETVKPGKIVWQEDPRLQDSSSEEEDVTEETDHRNSSPGEASLLEKETTRFFFFSKNDERLQGSDLFWRGVGSNMSRNSWEARTTNLRMDCRKKHKDAKRKMKPK [NOL8]	-1.85	51.3	51.3	1.08	1.32	2.26
